This assay addresses T1, α4β7 (RPMI 8866 cells) (Homo sapiens, UniProt P13612+P26010).
T1 construct: host or cells: RPMI 8866 cells
T1 sequence (P13612 34-1032): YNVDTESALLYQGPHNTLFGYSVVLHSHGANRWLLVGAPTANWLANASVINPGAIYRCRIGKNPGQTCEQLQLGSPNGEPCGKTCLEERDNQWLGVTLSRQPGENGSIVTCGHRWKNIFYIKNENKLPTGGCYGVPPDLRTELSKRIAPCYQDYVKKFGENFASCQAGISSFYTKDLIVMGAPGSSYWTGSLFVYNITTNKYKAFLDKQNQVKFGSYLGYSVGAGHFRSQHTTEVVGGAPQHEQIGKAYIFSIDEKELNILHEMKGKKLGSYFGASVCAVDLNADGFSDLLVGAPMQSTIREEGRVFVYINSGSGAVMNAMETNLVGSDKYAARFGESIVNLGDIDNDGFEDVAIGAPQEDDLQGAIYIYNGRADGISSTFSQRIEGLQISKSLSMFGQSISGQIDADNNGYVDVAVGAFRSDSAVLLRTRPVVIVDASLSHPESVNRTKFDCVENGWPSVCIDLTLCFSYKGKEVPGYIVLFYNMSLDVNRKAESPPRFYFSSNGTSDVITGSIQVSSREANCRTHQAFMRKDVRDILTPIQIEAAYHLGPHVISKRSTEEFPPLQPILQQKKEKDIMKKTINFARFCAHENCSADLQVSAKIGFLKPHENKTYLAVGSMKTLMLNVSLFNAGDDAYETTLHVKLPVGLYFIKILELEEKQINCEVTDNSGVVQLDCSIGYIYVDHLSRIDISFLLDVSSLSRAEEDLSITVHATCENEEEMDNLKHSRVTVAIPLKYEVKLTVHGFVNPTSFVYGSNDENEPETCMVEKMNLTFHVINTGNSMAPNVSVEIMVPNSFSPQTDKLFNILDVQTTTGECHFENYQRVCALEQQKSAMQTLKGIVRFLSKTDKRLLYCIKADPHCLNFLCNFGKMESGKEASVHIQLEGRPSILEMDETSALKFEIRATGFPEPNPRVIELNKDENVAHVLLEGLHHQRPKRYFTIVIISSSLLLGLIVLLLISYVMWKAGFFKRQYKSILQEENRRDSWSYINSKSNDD
T1 sequence (P26010 20-798): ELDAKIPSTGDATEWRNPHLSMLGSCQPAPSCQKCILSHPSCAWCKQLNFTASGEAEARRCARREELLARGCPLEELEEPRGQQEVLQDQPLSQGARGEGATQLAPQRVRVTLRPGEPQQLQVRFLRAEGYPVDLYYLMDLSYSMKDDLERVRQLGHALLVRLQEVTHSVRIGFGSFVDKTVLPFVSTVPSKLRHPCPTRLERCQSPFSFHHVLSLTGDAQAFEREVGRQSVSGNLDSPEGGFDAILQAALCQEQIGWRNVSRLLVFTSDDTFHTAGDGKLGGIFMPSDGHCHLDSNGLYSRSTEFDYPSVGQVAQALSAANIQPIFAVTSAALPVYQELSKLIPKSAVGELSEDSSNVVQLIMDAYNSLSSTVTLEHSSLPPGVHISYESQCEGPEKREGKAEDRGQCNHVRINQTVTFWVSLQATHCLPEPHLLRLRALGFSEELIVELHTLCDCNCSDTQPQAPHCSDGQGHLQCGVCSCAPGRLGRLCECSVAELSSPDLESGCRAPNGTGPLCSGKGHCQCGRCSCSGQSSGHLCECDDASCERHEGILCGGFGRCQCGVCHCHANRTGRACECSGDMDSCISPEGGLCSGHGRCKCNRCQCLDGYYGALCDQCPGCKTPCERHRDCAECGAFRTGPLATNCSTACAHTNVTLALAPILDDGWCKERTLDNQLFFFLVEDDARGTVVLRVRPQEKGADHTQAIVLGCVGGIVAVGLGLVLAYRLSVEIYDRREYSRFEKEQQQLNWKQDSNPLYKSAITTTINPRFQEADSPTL
As to the kind of experiment: α4β7-MAdCAM Cell Adhesion Assay. It counts as cell-based. The note with it: N-Me-Arg substituted, as compared to SEQ ID NO:39. On the procedure:
α4β7-MAdCAM Cell Adhesion Assay
RPMI 8866 cells (Sigma #95041316) are cultured in RPMI 1640 HEPES medium (Invitrogen #22400-089) supplemented with 10% serum (Fetal Bovine Serum, Invitrogen # 16140-071), 1 mM sodium pyruvate (Invitrogen #11360-070), 2 mM L-glutamine (Invitrogen # 25030-081) and Penicillin-Streptomycin (Invitrogen # 15140-122) at 100 units of penicillin and 100 μg of streptomycin per ml. The cells are washed two times in DMEM medium (ATCC #30-2002) supplemented with 0.1% BSA, 10 mM HEPES pH 7 and 1 mM MnCl2. The cells are re-suspended in supplemented DMEM medium at a density of 4×10^6 cells/ml.
A Nunc MaxiSorp plate was coated with rh MAdCAM-1/Fc Chimera (R&D #6065-MC) at 200 ng per well in 50 ul per well in 1×PBS and incubated at 4° C. overnight. The solution was then removed by shaking, blocked with 250 ul per well PBS containing 1% BSA, and incubated at 37° C. for 1 hr. The solution was removed by shaking. peptides are diluted by serial dilution in a final volume of 50 ul per well (2× concentration). To each well, 50 ul of cells (200,000 cells) are added and the plate is incubated at 37° C., 5% CO2 for 30-45 min to allow cell adhesion. […] The plate is shaken for 5 min and the absorbance at 570 nm is measured. To calculate the dose response, the absorbance value of control wells not containing cells is subtracted from each test well.

Bridge positions count the residues as written; N and C are the ends. Square brackets hold non-standard residues; d marks the D form. Ends that are not written are not given here. NMeR = CN[C@@H](CCCNC(=N)N)C(=O)O

For the substance “SEQ ID NO: 48: integrin antagonist peptide substituted with N-Me-Arg (C[NMeR]SDTLCK; disulfide 1-7)”, the “potency for α4β7 in cell adhesion assay” value is “increased potency”.

The values above are taken from patent US20200017549A1, “NOVEL a4B7 PEPTIDE ANTAGONISTS” (Protagonist Therapeutics, Inc., priority 2013, published 2020).
